From paper PMC2671562

Experiments:
[1] = target: ARNT PAS-B (Homo sapiens) (UniProt P27540); assay: NMR; settings: cited from earlier work
[2] = target: Drosophila PERIOD fragment lacking helix αF, dPERΔαF[232–538] (Drosophila melanogaster) (UniProt P07663); assay: AUC; sedimentation equilibrium, interference optics, 10 °C, 25 mM HEPES pH 7.7, 100 mM NaCl, 2 mM DTE; four starting concentrations from stocks of 0.8–2 mg/ml; dimer to monomers, K D = 1/K A

Sequence of ARNT PAS-B (P27540 356-470): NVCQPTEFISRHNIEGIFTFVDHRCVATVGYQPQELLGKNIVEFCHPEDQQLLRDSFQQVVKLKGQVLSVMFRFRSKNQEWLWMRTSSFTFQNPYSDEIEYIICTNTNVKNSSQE
Sequence of HIF-2α PAS-B (Q99814 239-350): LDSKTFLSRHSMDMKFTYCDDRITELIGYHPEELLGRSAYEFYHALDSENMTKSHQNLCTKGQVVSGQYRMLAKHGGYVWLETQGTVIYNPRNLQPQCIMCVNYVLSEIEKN

Row | Substance | Kd [1] [µM] | Kd [2] [µM]
1 | ARNT PAS-B (from UniProt P27540) | 500 | –
2 | Drosophila PERIOD fragment lacking helix αF, dPERΔαF[232–538] (from UniProt P07663 232-538) (domain or fragment) | – | 256
3 | HIF-2α PAS-B (from UniProt Q99814) | 30 | –
